Measured values reported in article PMC3656841.

Biological target: T1, Bacillus subtilis DNA Ligase D (BsuLigD) (B. subtilis) (UniProt O34398)
T1 sequence: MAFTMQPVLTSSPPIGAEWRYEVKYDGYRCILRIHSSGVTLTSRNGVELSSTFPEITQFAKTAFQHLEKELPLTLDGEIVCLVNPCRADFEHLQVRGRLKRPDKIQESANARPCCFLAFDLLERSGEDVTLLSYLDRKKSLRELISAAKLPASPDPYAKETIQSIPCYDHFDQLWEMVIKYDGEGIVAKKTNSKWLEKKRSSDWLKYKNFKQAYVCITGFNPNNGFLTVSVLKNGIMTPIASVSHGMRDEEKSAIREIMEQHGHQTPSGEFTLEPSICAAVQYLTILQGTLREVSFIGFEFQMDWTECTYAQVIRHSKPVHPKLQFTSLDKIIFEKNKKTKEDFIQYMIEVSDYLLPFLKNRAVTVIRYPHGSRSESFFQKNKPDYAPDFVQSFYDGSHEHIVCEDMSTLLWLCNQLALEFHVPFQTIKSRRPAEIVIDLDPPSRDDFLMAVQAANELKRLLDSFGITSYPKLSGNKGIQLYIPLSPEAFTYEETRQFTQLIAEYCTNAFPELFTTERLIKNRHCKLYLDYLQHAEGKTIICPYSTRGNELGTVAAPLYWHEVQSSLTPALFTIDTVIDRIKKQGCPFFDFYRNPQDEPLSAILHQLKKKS

- primer usage by BsuLigD (percentage of extended primers against reaction time) on a gapped molecule, 10 ng BsuLigD, 10 µM NTPs, without or with 40 ng of BsuKu: 3 fold
B1: Bacillus subtilis Ku (BsuKu) (natural protein)
chain: MNRTPSLHTKEKKGFIDMHTMWKGSISFGLVNIPIKLYAATEDKDIKLRSLHKEDHAPIKYEKVCTNCEKTLSPDEIVKGYEYVKGKYVVLTDEDLKSLKQEHEEKAVEIVDFVQLQEIDPIYFNRSYFVGPGDNGTKAYTLLREALRSTGKIGIANMTIRSKQQLAILRVYENCIVMESIHYPDEVRSAAQVPGVPDQSNVNDKELQTAITLIDELTAKFEPEKYEDTYRQALLQRVNDKLENKETAVTPDKAPPREDVIDLVSALQASIDRTRRPNRETPAAAPAQAAEPKGAGDKKQKTTRKKASGTS
